Residue numbers refer to the chain shown, from its start.
B1: C9 (antibody, V domains shown)
VH: EVKLLQSGGGLVQPGGSLKLSCAASGIDFSRYWMGWVRRAPGKGLEWIGEINPDSSTINYAPSLKDKFIISRDNAKNTLYLQMIKVRSEDTALYYCARYWADWFFDVWGTGTTVTVSS
VL: DIQMTQSSSYLSVSLGGRVTITCTASDHIDNWLAWYQQKPGNAPRLLLSGATSLDTGVPSRFSGSGSGKDFTLSITSLQTEDVATYYCQQYWSTPYTFGGGTKLEIK
B2: E10 (antibody, V domains shown)
VH: EVQLQQSGAELVRPGSSVKLSCKASGYTFTWYWIDWMKQRPGQGLEWIGNIYPSDSEVQYNQKFKDRATLTLDKSSTTAYMQLSSLTSEDSAVYYCARRLYDYFALDFWGQGTSVTVSS
VL: DIVMTQAAFSNPVTLGTSASISCRSSKSLQHSNGITYLYWYLQKPGQSPQLLIYQMSKFASGVPDRFSSSGSGTDFTLRISRVEAEDVGVYYCAQNLELPWTFGGGTKLEIK
B3: F10 (antibody, V domains shown)
VH: B2 VH with M37L, E57A, K63N, K74T, M81L, Q82H, L100I
VL: B2 VL with N11H, Y37F, F59L, V63I
B4: D11 (antibody, V domains shown)
VH: EVQLQQSGAELVRPGTSVKLSCKTSGYTFISYWIHWVKQRPGQGLEWIGVIDPSDSYTNYNQNFKGKVTLTVDTSSSTAYMQLSSLTSEDSAVYYCARFDYDDYWGQGTTLTVSS
VL: QIVLTQSPAIMSASPGEKVTMTCSASSSVTYMQWYKQKSGTSPKRWIYDTSKLASGVPARFSGSGSGTSYSLTISSMEAEDAATYYCQQWNTNPWTFGGGTKLEIK
B5: G9 (antibody, V domains shown)
VH: EVQLQQSGPEQVRTGASVKISCKASGYFFTGYYLHWVRQSHGKSLEWIGYIRSYNGATKYNQKFEGKTTFTVDTSSSTAYMQINSLTSEDSAVYYCAKDEDSGYAMDYWGQGTSVTVSS
VL: DIVMTQSHKFMSTLVGDRVAITCKASQDVSSAVAWYQQKPGQSPKLLIYSASYRFTGVPDRFTGSGSGTDFTFTITTVQTEDLAIYFCQQHYSLPWTFGGGTKLEIK
B6: C7 (antibody, V domains shown)
VH: QITQKSEGSGILQPSQTLSLTCSFSGFSLNISGMGVGWIRQPSGKGLEWLAHIWWDDVKRYNPALKSRLTISKDTSSRQVFLKIASVDTADTATYYCVRIDNSYAMDYWGQGTSVTVSS
VL: DIVLTQSPASLAVSLGQRATISCRASKSVSTSGYSYVHWFQQKPGQPPKLLIYLASNLESGVPARFSGSGSGTDFTLNIHPVEEEDAATYYCQHSRELPWTFGGGTKLEIK
B7: E7 (antibody, V domains shown)
VH: EVKLVESGGGLVQPGGSLRLSCATSGFTFTDYYMSWVRQTPGKALEWLGFIRNKPNGYTTEYNASVKGRFTISRDNSRSVLYLQMNVLRAEDSATYFCARVPHDYGFFDYWGQGTTLTVSS
VL: DVLMTQSPLSLPVSLGDQASISCRSSQSIEHINGHTYLEWYLQKPGQSPKVLIYKVSNRFSGVPDRFSGSGSGTDFTLRISRVEAEDLGVYYCFQASHLPYTFGGGTKLEIK
B8: F11 (antibody, V domains shown)
VH: EVQLQQSGPELVKPGASVKISCKASGYTFTDYYMNWVKQSHGKSLEWVGDINPNNGVTRYNQNFKGKGTMTVDKSSRTAYMEFRSLTSEDSAVYYCGRLGYYGKYKDGMDYWGQGTSVTVSS
VL: DIQMTQSPASLSVSVGETVTITCRASDNIYSNLAWYQQRQGKSPQLLVYAATNLLDGVPSRFSGSGSGTHYSLKINSLQSEDFGTYYCQHFWGTPFTFGSGTKLEIK
B9: G6 (antibody, V domains shown)
VH: QIQLVQSGPELKKPGETVKISCKASGYTFTPYGLSWVKQAPGKVLKWMGWINTSSGVPTYADDFKGRFAFSLETSVSTAYLQINNLKNEDTATYFCARISVSFYYGLYFDYWGQGTTLTVSS
VL: DIQMTQSPSSMSVSLGDTVSITCHASQGIANNIGWLQQKPGKSFKGLLYHGSTLEDGVPSRFSGSGSGAAYSLTISSLESEDFADYYCIQYAQLPYTFGGGTKLEIK
B10: B12 (antibody, V domains shown)
VH: EVQLQQSGPELVKPGASVKIPCKASGYTFTEYNMDWVKQSHGKSLEWIGDINPNNGDTIYNQKFKGKATLTVDKASSTAYMELRSLTSEDTAVYYCARGTLYGSNYYFVMDYWGQGTSVTVSS
VL: DIQITQSPASLSASVGETVTITCGASENIYGALNWFQRKQGKSPQLLIYGATTLADGMSSRFSGNGSGRQYSLKISGLHPDDVATYYCQNVLSIPWTFGGGTKLEIK
B11: B11 (antibody, V domains shown)
VH: EVQLQQSGAEPVRPGTSVKFSCKASGYTLTDYWMHWVKQRPGQGLDWIGVIDPSDSYTTYNQKFKGKATLTVDKSSSTAYMQLSSLTSEDSAVYYCARGPTLYYFDYWGQGTTLTVSS
VL: DIVMTQPQKFMSTSVGDRVSVTCKASQNVGTNVVWCQQKPGQSPKALIYSASYLYSGVPDRFTGTGSGTDFTLTISNVQSEDLAEYFCQQYNNYPLTFGAGTKLELK

What follows are binders tested against mumps hemagglutinin neuraminidase (HN) globular head domain, monomeric (Mumps virus genotype G (strain not …)).
B1: binds. B2: binds. B3: binds. B4: binds. B5: binds. B6: binds. B7: binds. B8: binds. B9: binds. B10: binds. B11: binds.

— PMC11588112 (Proceedings of the National Academy of Sciences of the …, 2024)
